Tests used:
[1] = test system: Arabidopsis thaliana T1 plants; assay: Topramezone tolerance of transgenic Arabidopsis thaliana T1 plants (spray, bleached leaf area grade, damage score); assay type: in vivo; settings: for Classification and statistics of the grade of pesticide damage: Grade 0 / Classification and statistics of the grade of pesticide damage: Grade 1 / Classification and statistics of the grade of pesticide damage: Grade 2 / Classification and statistics of the grade of pesticide damage: Grade 3: number of plants; for Classification and statistics of the grade of pesticide damage: Grade 0 / Classification and statistics of the grade of pesticide damage: Grade 1 / Classification and statistics of the grade of pesticide damage: Grade 2 / Classification and statistics of the grade of pesticide damage: Grade 3 / Scores / Resistance evaluation: 7 DAT, Table 1; for Scores: pesticide damage score 0-100
Excerpt: T1 transformants were initially selected from the untransformed seeds using a glufosinate selection scheme. The Arabidopsis thaliana T1 plants (AsHPPD-02) into which the AsHPPD-02 nucleotide sequence was introduced, the Arabidopsis thaliana T1 plants (AsHPPDm-F372A-02) into which the AsHPPDm-F372A-02 nucleotide sequence was introduced, the Arabidopsis thaliana T1 plants (AsHPPDm-F383W-02) into which the AsHPPDm-F383W-02 nucleotide sequence was introduced, the Arabidopsis thaliana T1 plants (AsHPPDm-F372A-F383W-02) into which the AsHPPDm-F372A-F383W-02 nucleotide sequence was introduced, the Arabidopsis thaliana T1 plants (DBN11726N) into which the control recombinant expression vector DBN11726N was introduced, and the wild-type Arabidopsis thaliana plants (CK) (18 days after sowing) were sprayed respectively with topramezone at three concentrations (100 g ai/ha (four-fold field concentration, 4×), 200 g ai/ha (eight-fold field concentration, 8×), and 0 g ai/ha (water, 0×)), isoxaflutole at three concentrations (140 g ai/ha (two-fold field concentration, 2×), 280 g ai/ha (four-fold field concentration, 4×), and 0 g ai/ha (water, 0×)), and mesotrione at three concentrations (210 g ai/ha (two-fold field concentration, […]), 420 g ai/ha (four-fold field concentration, 4×), and 0 g ai/ha (water, 0×)), to determine the tolerance of Arabidopsis thaliana to the herbicides. The degree of damage caused by the herbicide was measured for each plant according to the proportion of bleached leaf area (the proportion of bleached leaf area=bleached leaf area/total leaf area×100%) 7 days after spraying (7 DAT): the case where there is basically no bleached phenotype is defined as grade 0, the case where the proportion of bleached leaf area is less than 50% is defined as grade 1, the case where the proportion of bleached leaf area is more than 50% is defined as grade 2, and the case where the proportion of bleached leaf area is 100% grade is defined as grade 3.
According to the method as described above in point 6 of Example 1, the aforementioned Arabidopsis thaliana T1 plants and wild-type Arabidopsis thaliana plants (CK) (18 days after sowing) were sprayed respectively with topramezone at three concentrations (25 g ai/ha (one-fold field concentration, 1×). 100 g ai/ha (four-fold field concentration, 4×), and 0 g ai/ha (water, 0×)), isoxaflutole at three concentrations (35 g ai/ha (half-fold field concentration, 0.5×). 70 g ai/ha (one-fold field concentration, 1×), and 0 g ai/ha (water, 0×)), and mesotrione at three concentrations (52.5 g ai/ha (half-fold field concentration, 0.5×), 105 g ai/ha (one-fold field concentration, 1×), and 0 g ai/ha (water, 0×)) to detect the tolerance of Arabidopsis thaliana to the herbicides.
According to the method as described above in point 6 of Example 1, the aforementioned Arabidopsis thaliana T1 plants and wild-type Arabidopsis thaliana plants (CK) (18 days after sowing) were sprayed with topramezone at three different concentrations (i.e., 100 g ai/ha (four-fold field concentration, 4×), 200 g ai/ha (eight-fold field concentration, 8×) and 0 g ai/ha (water, 0×)), isoxaflutole at three different concentrations (i.e., 140 g ai/ha (two-fold field concentration, 2×), 280 g ai/ha (four-fold field concentration, 4×) and 0 g ai/ha (water, 0×)), and mesotrione at three different concentrations (i.e., 210 g ai/ha (two-fold field concentration, 2×), 420 g ai/ha (four-fold field concentration, 4×) and 0 g ai/ha (water, 0×)) respectively to detect the herbicide tolerance of Arabidopsis thaliana. […]

[2] = test system: Arabidopsis thaliana T1 plants; assay: Isoxaflutole tolerance of transgenic Arabidopsis thaliana T1 plants (spray, bleached leaf area grade, damage score); assay type: in vivo; settings: for Classification and statistics of the grade of pesticide damage Grade 0 / Classification and statistics of the grade of pesticide damage Grade 1 / Classification and statistics of the grade of pesticide damage Grade 2 / Classification and statistics of the grade of pesticide damage Grade 3: number of plants in grade;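 as to Scores: Weighted damage index from 0 to 100 where higher means more damage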
Outline: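 Read-out: per-plant damage grade 0–3 from proportion of bleached leaf area at 7 DAT (1 <50%, 2 >50%, 3 100%). Plants were T1 transformants, glufosinate-selected, plus wild-type CK, sprayed 18 days post-sowing. Rates: topramezone 25–200, isoxaflutole 35–280, mesotrione 52.5–420 g ai/ha.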

[3] = number of plants, isoxaflutole 140 g ai/ha (2×), 7 DAT, Table 2

B1: AsHPPDm-F372A-02: nucleotide sequence encoding Avena sativa HPPD with F372A; vector DBN11728 (nucleic acid)
DNA: ATGCCACCTACTCCAGCTACAGCTACTGGTGCTGCTGCTGCTGCCGTTACTCCTGAGCACGCTGCCAGGTCATTCCCCAGGGTGGTTCGCGTGAACCCCAGATCTGATAGGTTCCCAGTTCTGAGCTTCCACCATGTTGAGCTGTGGTGCGCTGATGCTGCTTCTGCTGCTGGCAGGTTCTCTTTCGCTCTTGGTGCTCCACTCGCTGCTAGATCTGATCTGTCTACAGGAAATAGCGCTCATGCCTCACTCCTGCTTCGCTCAGGTGCTTTGGCCTTCCTCTTCACCGCTCCATATGCTCCCCCACCTCAGGAGGCTGCTACTGCTGCTGCTACAGCCTCCATTCCAAGCTTCTCAGCTGATGCCGCTAGAACCTTCGCTGCTGCTCATGGACTTGCCGTGAGGTCTGTTGGTGTTCGCGTGGCTGATGCTGCTGAGGCTTTCAGAGTTTCCGTTGCCGGCGGAGCTAGGCCAGCTTTCGCTCCTGCTGATTTGGGACATGGTTTCGGCCTGGCTGAGGTTGAGCTTTACGGTGACGTGGTTCTCCGCTTCGTGTCTTACCCAGATGAGACTGACCTGCCTTTCCTTCCCGGCTTCGAGAGAGTTTCCTCTCCTGGTGCCGTGGATTACGGCCTGACAAGGTTCGACCACGTGGTTGGAAACGTTCCCGAGATGGCTCCAGTGATCGATTACATGAAGGGCTTCCTTGGATTCCATGAGTTCGCCGAGTTCACTGCTGAGGACGTGGGAACCACTGAGTCCGGTTTGAACTCTGTGGTTCTCGCCAACAATTCTGAGGCTGTTTTGCTCCCTCTGAATGAGCCTGTGCATGGAACCAAGAGGAGAAGCCAGATTCAAACTTACCTGGAGTACCACGGTGGCCCTGGAGTTCAGCATATCGCCCTTGCTTCTAATGATGTGTTGCGCACACTCAGAGAGATGCGCGCCAGAACCCCCATGGGAGGTTTCGAGTTCATGGCCCCACCACAGGCTAAGTACTACGAGGGCGTTAGAAGGATTGCTGGAGACGTGTTGAGCGAGGAGCAGATCAAGGAGTGCCAAGAGCTGGGTGTTCTTGTGGATAGGGATGACCAGGGCGTTCTGCTTCAAATTGCCACTAAGCCAGTGGGCGACCGCCCTACATTCTTCCTTGAGATGATTCAAAGAATCGGCTGCATGGAGAAGGATGAGGTTGGACAGGAGTACCAAAAGGGCGGATGCGGTGGCTTCGGAAAGGGTAACTTCAGCGAGTTGTTCAAGTCAATCGAGGACTACGAGAAGAGCCTCGAGGTGAAGCAGTCAGTGGTTGCCCAAAAGTCCTGA
modifications: AsHPPDm-F372A-02 Nucleotide Sequence
notes: vector DBN11728
Classification and statistics of the grade of pesticide damage: Grade 0 ([1]; topramezone 100 g ai/ha (4×)): 16 | Classification and statistics of the grade of pesticide damage: Grade 1 ([1]; topramezone 100 g ai/ha (4×)): 0 | Classification and statistics of the grade of pesticide damage: Grade 2 ([1]; topramezone 100 g ai/ha (4×)): 0 | Classification and statistics of the grade of pesticide damage: Grade 3 ([1]; topramezone 100 g ai/ha (4×)): 0 | Classification and statistics of the grade of pesticide damage: Grade 0 ([1]; topramezone 200 g ai/ha (8×)): 16 | Classification and statistics of the grade of pesticide damage: Grade 1 ([1]; topramezone 200 g ai/ha (8×)): 0 | Classification and statistics of the grade of pesticide damage: Grade 2 ([1]; topramezone 200 g ai/ha (8×)): 0 | Classification and statistics of the grade of pesticide damage: Grade 3 ([1]; topramezone 200 g ai/ha (8×)): 0 | Scores ([1]; topramezone 100 g ai/ha (4×)): 0 | Scores ([1]; topramezone 200 g ai/ha (8×)): 0 | Resistance evaluation ([1]; topramezone 100 g ai/ha (4×)): highly resistant (highly resistant plants (scores 0-15)) | Resistance evaluation ([1]; topramezone 200 g ai/ha (8×)): highly resistant (highly resistant plants (scores 0-15)) | tolerance to topramezone (resistance class) ([1]; topramezone at four-fold or eight-fold field concentration): highly-resistant | tolerance to isoxaflutole (in words) ([2]; in vivo): different degrees of tolerance | Resistance evaluation ([2]; isoxaflutole 140 g ai/ha): Moderately | Scores ([2]; isoxaflutole 140 g ai/ha): 33 | Resistance evaluation ([2]; isoxaflutole 140 g ai/ha (2×), 7 DAT, Table 2): moderately | Classification and statistics of the grade of pesticide damage Grade 0 ([2]; isoxaflutole 140 g ai/ha): 5 | Classification and statistics of the grade of pesticide damage Grade 1 ([2]; isoxaflutole 140 g ai/ha): 6 | Classification and statistics of the grade of pesticide damage Grade 2 ([2]; isoxaflutole 140 g ai/ha): 5 | Classification and statistics of the grade of pesticide damage Grade 3 ([2]; isoxaflutole 140 g ai/ha): 0 | Resistance evaluation ([2]; isoxaflutole 280 g ai/ha): Poorly | Scores ([2]; isoxaflutole 280 g ai/ha): 67 | Resistance evaluation ([2]; isoxaflutole 280 g ai/ha (4×), 7 DAT, Table 2): poorly resistant (poorly resistant plants (scores 34-67)) | Classification and statistics of the grade of pesticide damage Grade 0 ([2]; isoxaflutole 280 g ai/ha): 0 | Classification and statistics of the grade of pesticide damage Grade 1 ([2]; isoxaflutole 280 g ai/ha): 0 | Classification and statistics of the grade of pesticide damage Grade 2 ([2]; isoxaflutole 280 g ai/ha): 16 | Classification and statistics of the grade of pesticide damage Grade 3 ([2]; isoxaflutole 280 g ai/ha): 0 | tolerance to isoxaflutole (resistance class) ([2]; isoxaflutole at four-fold field concentration): poorly-resistant | tolerance to isoxaflutole (resistance class) ([2]; isoxaflutole at two-fold field concentration): moderately-resistant | Classification and statistics of the grade of pesticide damage: Grade 0 [2, 3]: 5 | Classification and statistics of the grade of pesticide damage: Grade 1 [2, 3]: 6 | Classification and statistics of the grade of pesticide damage: Grade 2 [2, 3]: 5

Reference: patent publication US20250043302A1, “MUTATED HYDROXYPHENYLPYRUVATE DIOXYGENASE POLYPEPTIDE, AND CODING GENE AND USE THEREOF” (BEIJING DABEINONG BIOTECHNOLOGY CO., LTD., priority 2021, published 2025)
